Laboratory results from publication PMC5487423 (2017).
Where two headings read alike, the source gives them in different places.

Assays:
Experiment in all cases: BLI
CCL27_HUMAN = target: CCL27_HUMAN
CCL23_HUMAN = target: CCL23_HUMAN
CCL15_HUMAN = target: CCL15_HUMAN
CCL16_HUMAN [1] = target: T1, CCL16_HUMAN (Homo sapiens)
T1 chain: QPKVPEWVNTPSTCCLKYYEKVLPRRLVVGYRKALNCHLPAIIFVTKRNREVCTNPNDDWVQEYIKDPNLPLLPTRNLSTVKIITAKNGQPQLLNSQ

CCL17_HUMAN [2] = target: T2, CCL17_HUMAN (Homo sapiens)
T2 chain: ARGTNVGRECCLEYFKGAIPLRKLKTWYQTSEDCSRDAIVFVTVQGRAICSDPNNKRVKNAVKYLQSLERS

CCL4_MOUSE = target: T3, CCL4_MOUSE (Mus musculus)
T3 chain: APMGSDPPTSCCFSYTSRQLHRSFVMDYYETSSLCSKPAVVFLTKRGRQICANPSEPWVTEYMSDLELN

CCL5 [3] = target: T4, CCL5 (human, UniProt P13501 24-91)
T4 chain: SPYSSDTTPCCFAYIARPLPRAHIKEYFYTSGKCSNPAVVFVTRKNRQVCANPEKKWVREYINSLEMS

CCL11 [4] = target: T5, CCL11 (human, UniProt P51671 24-97)
T5 sequence (P51671 24-97): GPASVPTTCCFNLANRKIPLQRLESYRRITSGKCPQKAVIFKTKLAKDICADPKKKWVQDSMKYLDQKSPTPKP

CCL2 [5] = target: T6, CCL2 (human, UniProt P13500 24-99)
T6 sequence (P13500 24-99): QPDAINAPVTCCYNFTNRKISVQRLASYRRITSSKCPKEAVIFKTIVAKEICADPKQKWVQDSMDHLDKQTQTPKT

CCL8 = target: T7, CCL8 (human, UniProt P80075 24-99)
T7 chain: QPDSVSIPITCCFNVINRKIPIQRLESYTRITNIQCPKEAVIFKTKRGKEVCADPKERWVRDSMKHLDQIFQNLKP

CCL18_HUMAN = target: T8, CCL18_HUMAN (Homo sapiens)
T8 chain: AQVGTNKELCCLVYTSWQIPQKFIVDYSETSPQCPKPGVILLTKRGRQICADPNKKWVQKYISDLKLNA

CCL16_HUMAN [6] = target: T1, CCL16_HUMAN
CCL13_HUMAN = CCL13_HUMAN (Homo sapiens)
CCL13_HUMAN (Homo sapiens), sequence (chain, as listed by the source): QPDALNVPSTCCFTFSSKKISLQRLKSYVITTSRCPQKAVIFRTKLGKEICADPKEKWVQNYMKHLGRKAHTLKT

CCL17_HUMAN [7] = target: T2, CCL17_HUMAN
CCL14_HUMAN = target: T9, CCL14_HUMAN (Homo sapiens)
T9 chain: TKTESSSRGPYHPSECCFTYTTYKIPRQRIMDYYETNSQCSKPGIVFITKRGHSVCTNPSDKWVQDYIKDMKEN

CCL4L1_HUMAN = target: T10, CCL4L1_HUMAN (Homo sapiens)
T10 chain: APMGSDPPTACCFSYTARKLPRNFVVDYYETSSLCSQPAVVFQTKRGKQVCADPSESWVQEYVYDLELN

CCL5 [8] = target: T4, CCL5
CCL19_HUMAN = target: T11, CCL19_HUMAN (Homo sapiens)
T11 chain: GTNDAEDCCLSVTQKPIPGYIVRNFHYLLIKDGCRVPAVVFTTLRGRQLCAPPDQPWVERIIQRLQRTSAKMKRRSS

CCL4_HUMAN = target: T12, CCL4_HUMAN (Homo sapiens)
T12 chain: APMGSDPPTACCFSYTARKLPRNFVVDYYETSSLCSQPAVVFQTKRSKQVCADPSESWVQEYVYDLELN

CCL22_HUMAN = target: T13, CCL22_HUMAN (Homo sapiens)
T13 chain: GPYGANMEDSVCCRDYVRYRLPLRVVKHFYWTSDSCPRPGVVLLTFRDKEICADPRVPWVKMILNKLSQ

CCL24_HUMAN = target: T14, CCL24_HUMAN (Homo sapiens)
T14 chain: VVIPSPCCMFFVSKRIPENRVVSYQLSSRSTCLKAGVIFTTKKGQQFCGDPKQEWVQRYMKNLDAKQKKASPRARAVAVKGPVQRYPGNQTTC

CCL11 [9] = target: T5, CCL11; remark: listed apart in the source
CCL3 = target: T15, CCL3 (human, UniProt P10147 24-92)
T15 chain: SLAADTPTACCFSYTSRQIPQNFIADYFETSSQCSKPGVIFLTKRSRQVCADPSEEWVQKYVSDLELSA

CCL7 = CCL7 (human, UniProt P80098 24-99)
CCL7, sequence (P80098 24-99): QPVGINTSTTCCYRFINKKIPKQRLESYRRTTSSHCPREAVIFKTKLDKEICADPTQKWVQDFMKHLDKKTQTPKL

CCL3L1_HUMAN = target: T16, CCL3L1_HUMAN (Homo sapiens)
T16 chain: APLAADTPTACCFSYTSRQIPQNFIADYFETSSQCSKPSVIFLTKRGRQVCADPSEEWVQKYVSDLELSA

CCL2 [10] = target: T6, CCL2; remark: listed apart in the source

B1: P991_AMBCA, purified, C-terminal StrepII-8xHis tag (natural protein)
chain: ETGENGEGTTQPDYDNSTDYYNYEDFKCTCPAPHLNNTNGTVMKPIGCYYTCNVTRCTAPDTYPCYNLTEHQAKNLTTSPTTLCAVGNCDHGICVPNGTKELCFKAPNLEE
How did the Kd (CCL27_HUMAN) turn out when B1 was run?
The Kd was 39 nM.

And the Kd (CCL23_HUMAN)?
Its Kd is 5.6 nM.

And the Kd (CCL15_HUMAN)?
The Kd was 160 nM.

What about the Kd (CCL16_HUMAN [1]) of the same binder?
Its Kd is 1.28 nM.

And the Kd (CCL17_HUMAN [2])?
Its Kd is 7.66 nM.

And the Kd (CCL4_MOUSE)?
The Kd was 0.401 nM.

And the Kd (CCL5 [3])?
Its Kd is 1.47 nM.

What about the Kd (CCL11 [4]) of the same binder?
Its Kd is 3.43 nM.

What about the Kd (CCL2 [5]) of the same binder?
The Kd was 12.2 nM.

What about the Kd (CCL8) of the same binder?
Its Kd is 8.8 nM.

What about the Kd (CCL18_HUMAN) of the same binder?
The Kd was 0.21 nM.

What about the Kd (CCL16_HUMAN [6]) of the same binder?
The Kd was 1.3 nM.

What about the Kd (CCL13_HUMAN) of the same binder?
The Kd was 0.42 nM.

What about the Kd (CCL17_HUMAN [7]) of the same binder?
Its Kd is 7.7 nM.

What about the Kd (CCL14_HUMAN) of the same binder?
Its Kd is 0.43 nM.

What about the Kd (CCL4L1_HUMAN) of the same binder?
The Kd was 0.83 nM.

What about the Kd (CCL5 [8]) of the same binder?
Its Kd is 1.5 nM.

What about the Kd (CCL19_HUMAN) of the same binder?
Its Kd is 14 nM.

What about the Kd (CCL4_HUMAN) of the same binder?
The Kd was 5.8 nM.

And the Kd (CCL22_HUMAN)?
The Kd was 4 nM.

What about the Kd (CCL24_HUMAN) of the same binder?
Its Kd is 6.5 nM.

What about the Kd (CCL11 [9]) of the same binder?
The Kd was 3.4 nM.

And the Kd (CCL3)?
The Kd was 1.1 nM.

What about the Kd (CCL7) of the same binder?
The Kd was 0.51 nM.

And the Kd (CCL3L1_HUMAN)?
Its Kd is 1.4 nM.

And the Kd (CCL2 [10])?
Its Kd is 12 nM.
